pKd: −log10 of the molar value. One block for each substance: values may come before it.
Experiments:
[1] = target: soluble monomeric FcγRIIIA (extracellular region of FcγRIIIA joined to the linker-AVITAG sequence) (human) (UniProt P08637); assay: ELISA
[2] = target: soluble dimeric FcγRIIB-Fc fusion protein (extracellular domain of FcγRIIB fused to hinge-CH2-CH3 of human IgG2) (human) (UniProt P31994); assay: ELISA
[3] = target: FcγRIIIA on natural killer cells of human donor PBMC (human) (UniProt P08637); assay: cell-based or functional assay
[4] = target: soluble monomeric FcγRIIIA (extracellular region of FcγRIIIA joined to the linker-AVITAG sequence) (human) (UniProt P08637); assay: SPR (BIAcore), Ab captured on BSA-FITC, separate fit 200/800 nM
[5] = target: FcγRIIIA, soluble monomeric protein (extracellular region joined to the linker-AVITAG sequence) (human) (UniProt P08637); assay: ELISA
[6] = target: FcγRIIB, soluble dimeric protein (extracellular domain fused to the hinge-CH2-CH3 domain of human IgG2) (human) (UniProt P31994); assay: ELISA
[7] = target: FcγRIIIA (CD16A), F158 allotype (human) (UniProt P08637); assay: not stated; human FcRs
FcγRIIB (CD32B) (human) [8] = target: FcγRIIB (CD32B) (human) (UniProt P31994); assay: not stated; human FcRs
[9] = target: FcγRIIIA (CD16A), V158 allotype (human) (UniProt P08637); assay: not stated; human FcRs
[10] = target: FcγRIIA (CD32A), H131 allotype (human) (UniProt P12318); assay: not stated; human FcRs
[11] = target: FcγRIIIA (CD16A), F158 allotype (human) (UniProt P08637); assay: BIAcore (as Table 27)
[12] = target: FcγRIIIA (CD16A), V158 allotype (human) (UniProt P08637); assay: BIAcore (as Table 27)
[13] = target: FcγRIIIA (CD16A), F158 allotype (human) (UniProt P08637); assay: BIAcore
[14] = target: FcγRIIIA (CD16A), V158 allotype (human) (UniProt P08637); assay: BIAcore
[15] = target: FcγRIIA (CD32A), H131 allotype (human) (UniProt P12318); assay: BIAcore
[16] = target: soluble dimeric FcγRIIB-Fc fusion protein (extracellular domain of FcγRIIB fused to hinge-CH2-CH3 of human IgG2) (human) (UniProt P31994); assay: SPR (BIAcore), Ab captured on BSA-FITC, separate fit 200/800 nM
[17] = target: soluble dimeric FcγRIIB-Fc fusion protein (extracellular domain of FcγRIIB fused to hinge-CH2-CH3 of human IgG2) (human) (UniProt P31994); assay: SPR (BIAcore), Fc mutant in ch4-4-20, off rate relative to wild type
[18] = target: soluble monomeric FcγRIIIA 158V (extracellular region joined to linker-AVITAG) (human) (UniProt P08637); assay: as above
FcγRIIB (CD32B) (human) [19] = target: FcγRIIB (CD32B) (human) (UniProt P31994); assay: BIAcore (as Table 27)
FcγRIIB (CD32B) (human) [20] = target: FcγRIIB (CD32B) (human) (UniProt P31994); assay: BIAcore
FcγRIIB (CD32B) (human) [21] = target: FcγRIIB (CD32B) (human) (UniProt P31994); assay: BIAcore (as Table 27); cells shifted one column to the left

FcγRIIIA (CD16A), F158 allotype (human), sequence (P08637 17-208 limits assumed): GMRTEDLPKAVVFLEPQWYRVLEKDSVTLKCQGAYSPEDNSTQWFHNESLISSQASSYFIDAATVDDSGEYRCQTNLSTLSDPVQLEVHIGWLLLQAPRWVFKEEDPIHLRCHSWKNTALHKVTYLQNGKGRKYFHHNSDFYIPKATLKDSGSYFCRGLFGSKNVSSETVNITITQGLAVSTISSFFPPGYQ
soluble monomeric FcγRIIIA (extracellular region of FcγRIIIA joined to the linker-AVITAG sequence) (human), sequence (P08637 17-208): as the sequence (P08637 17-208 limits assumed) above
soluble dimeric FcγRIIB-Fc fusion protein (extracellular domain of FcγRIIB fused to hinge-CH2-CH3 of human IgG2) (human), sequence (P31994 43-217): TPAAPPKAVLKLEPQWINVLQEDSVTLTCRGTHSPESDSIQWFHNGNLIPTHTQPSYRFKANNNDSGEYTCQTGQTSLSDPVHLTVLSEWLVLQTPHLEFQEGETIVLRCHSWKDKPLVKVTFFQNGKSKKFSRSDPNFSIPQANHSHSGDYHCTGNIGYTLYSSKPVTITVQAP
FcγRIIB, soluble dimeric protein (extracellular domain fused to the hinge-CH2-CH3 domain of human IgG2) (human), sequence (P31994 43-217): as above
FcγRIIB (CD32B) (human), sequence (P31994 43-217 limits assumed): as the sequence (P31994 43-217) above
FcγRIIA (CD32A), H131 allotype (human), sequence (P12318 34-217 limits assumed): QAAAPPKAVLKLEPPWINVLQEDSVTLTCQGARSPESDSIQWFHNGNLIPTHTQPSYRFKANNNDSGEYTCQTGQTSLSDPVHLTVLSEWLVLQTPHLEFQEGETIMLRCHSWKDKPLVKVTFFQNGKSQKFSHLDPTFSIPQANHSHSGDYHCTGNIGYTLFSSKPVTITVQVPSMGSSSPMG
FcγRIIIA on natural killer cells of human donor PBMC (human), sequence (P08637 17-254): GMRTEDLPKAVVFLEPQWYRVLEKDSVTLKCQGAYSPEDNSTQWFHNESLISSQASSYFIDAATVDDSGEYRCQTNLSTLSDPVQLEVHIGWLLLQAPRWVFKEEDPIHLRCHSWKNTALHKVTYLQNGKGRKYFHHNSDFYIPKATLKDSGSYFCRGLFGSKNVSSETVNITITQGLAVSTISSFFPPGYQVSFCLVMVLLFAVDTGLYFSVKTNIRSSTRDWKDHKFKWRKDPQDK
soluble monomeric FcγRIIIA 158V (extracellular region joined to linker-AVITAG) (human), sequence (P08637 17-208 F176V): as the sequence (P08637 17-208 limits assumed) above, with F160V counted along it
FcγRIIIA (CD16A), V158 allotype (human), sequence (P08637 17-208 F176V limits assumed): as the sequence (P08637 17-208 limits assumed) above, with F160V counted along it
FcγRIIIA, soluble monomeric protein (extracellular region joined to the linker-AVITAG sequence) (human), sequence (P08637 17-208 F176V limits assumed): as the sequence (P08637 17-208 limits assumed) above, with F160V counted along it

Substance: ch4-4-20 Mut16 (F372Y) (antibody)
ELISA, OD [1]: 1 OD | ELISA, OD [2]: 1.55 OD | ADCC, % [3]: 15% | pKd [4]: 7.07

Substance: Fc variant S415I, L251F (antibody)
fold change vs WT [5]: 0.5 fold | fold change vs WT [6]: 0.75 fold

Substance: immunoglobulin with Fc variant F243L, R292P, V305I (antibody)
fold change vs wild-type affinity [7]: 0.4 fold | fold change vs wild-type affinity (FcγRIIB (CD32B) (human) [8]): -13.3 fold | fold change vs wild-type affinity [9]: 1.6 fold | fold change vs wild-type affinity [10]: -3.3 fold | Koff WT/Koff mutant [11]: 1.43 | Koff WT/Koff mutant [12]: 2.56 | Koff WT/Koff mutant [13]: 1.43 | Koff WT/Koff mutant [14]: 2.56 | Koff WT/Koff mutant [15]: 0.23

Substance: ch4-4-20 Mut14 (K288M, K334E) (antibody)
ELISA, OD [1]: 1.1 OD | ELISA, OD [2]: 0.13 OD | ADCC, % [3]: 28% | pKd [4]: 7.12 | koff [4]: 0.1 s⁻¹ | kon [4]: 1.37e+06 M⁻¹ s⁻¹ | pKd [16]: 7.02 | koff [16]: 0.089 s⁻¹

Substance: Fc variant K317N, F423-deleted (antibody)
fold change vs WT [6]: 7 fold

Substance: ch4-4-20 MgFc43b (K288R, T307A, K344E, P396L) (antibody)
Relative rate of lysis (ADCC, vs wild type ch4-4-20) [3]: 3.3 | Koff WT/Mut [17]: 0.89 | Koff WT/Mut [18]: 1.27

Substance: Fc variant E258D, N384K (antibody)
fold change vs WT [5]: 1.25 fold | fold change vs WT [6]: 4 fold

Substance: ch4-4-20 MgFc38 (K392T, P396L) (antibody)
Relative rate of lysis (ADCC, vs wild type ch4-4-20) [3]: 3.07 | Koff WT/Mut [17]: 2.3 | Koff WT/Mut [18]: 1.64

Second part, led by results:

fold change vs wild-type affinity [7]: 2.4 fold | fold change vs wild-type affinity (FcγRIIB (CD32B) (human) [8]): -1.6 fold | fold change vs wild-type affinity [9]: 5.3 fold | fold change vs wild-type affinity [10]: 0.4 fold
Substance: immunoglobulin with Fc variant F243L, R292P, P396L (antibody)

fold change vs wild-type affinity [7]: 0.1 fold | fold change vs wild-type affinity (FcγRIIB (CD32B) (human) [8]): -1.7 fold | fold change vs wild-type affinity [9]: 0.4 fold | fold change vs wild-type affinity [10]: 0.4 fold | Koff WT/Koff mutant [11]: 2.49 | Koff WT/Koff mutant (FcγRIIB (CD32B) (human) [19]): 0.78 | Koff WT/Koff mutant [12]: 2.18 | Koff WT/Koff mutant [13]: 2.49 | Koff WT/Koff mutant (FcγRIIB (CD32B) (human) [20]): 0.78 | Koff WT/Koff mutant [14]: 2.18 | Koff WT/Koff mutant [15]: 1.95
Substance: immunoglobulin with Fc variant D270E, G316D, R416G (antibody)

Koff WT/Koff mutant (FcγRIIB (CD32B) (human) [21]): 1.07 | Koff WT/Koff mutant (FcγRIIB (CD32B) (human) [19]): 1.07 | Koff WT/Koff mutant [12]: 1.22 | Koff WT/Koff mutant [13]: 0.94 | Koff WT/Koff mutant (FcγRIIB (CD32B) (human) [20]): 1.07 | Koff WT/Koff mutant [14]: 1.22 | Koff WT/Koff mutant [15]: 0.95
Substance: immunoglobulin with Fc variant D270E, G316D, P396L, R416G (antibody)

fold change vs WT [6]: 0.5 fold
Substance: Fc variant D399E, R292L, V185M (antibody)

Koff WT/Mut [17]: 1.03 | Koff WT/Mut [18]: 0.977
Substance: ch4-4-20 MgFc37 (K248M) (antibody)
Relative rate of lysis (ADCC, vs wild type ch4-4-20) [3]: 3.83

ELISA, OD [1]: 1 OD | ELISA, OD [2]: 1.2 OD | pKd [16]: 7.38
Substance: ch4-4-20 Mut10 (P396L, A330S, K288N) (antibody)
ADCC, % [3]: 41%

Koff WT/Mut [17]: 0.85 | Koff WT/Mut [18]: 1.29
Substance: ch4-4-20 MgFc49 (K261N, K210M, P396L) (antibody)
Relative rate of lysis (ADCC, vs wild type ch4-4-20) [3]: 2.06

ELISA, OD [1]: 1 OD | ELISA, OD [2]: 1.25 OD | pKd [4]: 7.04 | koff [4]: 0.112 s⁻¹ | kon [4]: 1.23e+06 M⁻¹ s⁻¹ | pKd [16]: 7.29 | koff [16]: 0.043 s⁻¹
Substance: ch4-4-20 Mut18 (K326E) (antibody)
ADCC, % [3]: 28%

From US20120219551A1
